Experimental data published in publication PMC12752606, “METTL10‐Mediated PIAS3 Methylation Links Purine Metabolism to Gastric Cancer Progression” (Advanced Science, 2025).

Molecular target: T1, GST-PIAS3 (UniProt Q9Y6X2 1-628)
T1 construct: PIAS3; also called bacterially expressed PIAS3; source: E. coli BL21, purified (Glutathione Agarose Resin)
T1 sequence (looked up): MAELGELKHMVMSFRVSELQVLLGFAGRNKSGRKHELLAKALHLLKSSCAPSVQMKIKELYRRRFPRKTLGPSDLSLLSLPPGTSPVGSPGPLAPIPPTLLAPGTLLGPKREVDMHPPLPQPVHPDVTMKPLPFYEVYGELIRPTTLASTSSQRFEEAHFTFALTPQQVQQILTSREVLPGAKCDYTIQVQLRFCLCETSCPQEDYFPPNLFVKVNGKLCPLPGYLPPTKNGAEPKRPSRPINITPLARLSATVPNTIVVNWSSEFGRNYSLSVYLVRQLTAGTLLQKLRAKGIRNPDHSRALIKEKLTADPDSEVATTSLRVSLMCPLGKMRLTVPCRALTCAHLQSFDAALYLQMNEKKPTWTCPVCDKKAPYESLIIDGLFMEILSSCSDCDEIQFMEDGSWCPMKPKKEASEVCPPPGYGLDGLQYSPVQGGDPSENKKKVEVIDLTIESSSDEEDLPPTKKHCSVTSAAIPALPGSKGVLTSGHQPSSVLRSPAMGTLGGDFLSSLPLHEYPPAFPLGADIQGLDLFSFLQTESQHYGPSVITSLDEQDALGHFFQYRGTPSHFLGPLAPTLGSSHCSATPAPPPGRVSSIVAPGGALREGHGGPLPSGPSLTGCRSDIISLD
Test: pull-down; purified GST or GST-PIAS3 incubated with purified His-METTL10 in 25 mM Tris-HCl pH 8.0, 150 mM NaCl, 4 °C overnight; Glutathione Agarose Resin; eluted with 10 mM reduced glutathione
Details: both partners purified

B1: His-METTL10 (enzyme)
chain: not shown
notes: METTL10 (EEF1AKMT2); also called bacterially expressed METTL10; source: E. coli BL21, purified (Ni-NTA resin)
B1: binds.
